Source: patent US8497352B2, “Use of Wnt5-α peptide derivates for the treatment of melanoma and gastric cancer” (Wntresearch AB, priority 2008, dated 2013)

Key:
A2058 melanoma cells = test: Cell adhesion assay, A2058 cells; assay type: cell-based, human; details: recombinant Wnt-5a, 60 min adhesion
Procedure: Cells pre-treated and stimulated as described below were detached with Versene, re-suspended in serum-free RPMI medium and samples containing 30,000 cells from each treatment group were added to each well of a 96-well plate The cells were allowed to adhere for 60 min at 37° C. in a humidified atmosphere of 5% carbon dioxide after which the non-adherent cells were washed away with PBS. The adherent cells were fixed in 1% glutaraldehyde for 10 min at room temperature and then stained with 0.5% crystal violet in 20% methanol for 10 min. Finally the stain from each group of cells was dissolved in 50% acetic acid. The amount of dissolved stain from each well was thereafter measured in a Fluostar plate reader (BMG Lab Technologies GmbH, Offenberg, Germany) at 544 nm. The individual samples from each separate experiment were analysed in quadruplicate and the accumulated data were based on 5 separate experiments. The results are illustrated in FIG. 4. • A) A2058 melanoma cells were stimulated with the indicated concentrations of Wnt-5a, detached with Versene and resuspended as single cells in serum-free medium in the presence or absence of recombinant Wnt-5a at the indicated concentrations. Cells were then allowed to adhere in a 96-well plate. After a period of 60 min the non-adherent cells were washed away while the adherent cells were stained and their number determined. This number is presented as a percentage of the control (no Wnt-5a) stimulation (FIG. 4A) • B) A2058 melanoma cells were cultured to confluence in a 12-well plate after which a scratch was inflicted in each well, the medium was changed to fresh serum-free medium lacking (closed circles) or containing 0.2 μg/ml Wnt-5a (open squares). (FIG. 4B) • C) A2058 melanoma cells were cultured to confluence in a 12-well plate after which a scratch was inflicted to each well, the medium was changed to fresh serum-free medium in the absence of any additive (closed circle), the presence of 0.2 μg/ml Wnt-5a alone (open squares) or the presence of 0.2 μg/ml Wnt-5a with 100 μM Box5 (open triangle). (FIG. 4C) • D) HTB63 melanoma cells were cultured to confluence in a 12-well dish after which a scratch was inflicted to each well, the medium was changed to fresh serum-free medium (closed circle), conditioned medium (open squares) or conditioned medium supplemented with 100 μM Box5 (open triangle). To record changes in migration in panels B-D, a picture was taken from each scratch/well from the same area of cells after 0, 16, 24, 40 or 48 hours, and the wound-healing was expressed as percentage of wound area closed. […] The cells were then allowed to invade for 24 hours after which the attached cells on the lower side of the membrane were counted. […]

[1] = system: Wnt-5a-induced Ca^2+ signaling; test: Determination of cytosolic free calcium levels (fura-2) in A2058 cells; assay type: cell-based, human; details: 0.1 μg/ml Wnt-5a
Procedure: Cells grown on a glass cover slip were incubated with 4 μM fura-2/AM in culture medium for 30 minutes at 37° C. (Dejmek et al., 2006). After fura-2 loading of the cells, the cover slips were washed and mounted in a specially designed chamber to which was added a calcium-containing medium (136 mM NaCl, 4.7 mM KCl, 1.2 mM MgSO4, 1.1 mM CaCl2, 1.2 KH2PO4, 5 mM NaHCO3, 5.5 mM glucose and 20 mM Hepes, pH 7.4). The chamber was then placed in a system consisting of a NIKON Diaphot microscope connected to a Photon Technology International (PTI) imaging system. The cells were first allowed to rest for 10 minutes before any stimulation was performed. Fura-2 fluorescence was then recorded continuously from the cells before and after the stimulations with either Wnt-5a, endothelin-1 or charbacol (as indicated in the legend to FIG. 8) using an excitation wavelength rapidly alternating between 340 and 380 nm, while the emission wavelength was set at 510 nm. The fluorescence intensity ratios (340/380 nm) were subsequently calculated and analyzed using the PTI Image Master Software. Statistical analysis—The Student's t-test for unpaired samples was used to analyze differences in the experiments, where *=p<0.05, **=p<0.01, and ***=p<0.001

B1: Wnt-5a: human recombinant Wnt-5a protein from R&D Systems (protein, UniProt P41221 62-380, looked up)
Protein Wnt-5a: IIGAQPLCSQLAGLSQGQKKLCHLYQDHMQYIGEGAKTGIKECQYQFRHRRWNCSTVDNTSVFGRVMQIGSRETAFTYAVSAAGVVNAMSRACREGELSTCGCSRAARPKDLPRDWLWGGCGDNIDYGYRFAKEFVDARERERIHAKGSYESARILMNLHNNEAGRRTVYNLADVACKCHGVSGSCSLKTCWLQLADFRKVGDALKEKYDSAAAMRLNSRGKLVQVNSRFNSPTTQDLVYIDPSPDYCVRNESTGSLGTQGRLCNKTSEGMDGCELMCCGRGYDQFKTVQTERCHCKFHWCCYVKCKKCTEIVDQFVCK
- Concentration giving maximal effect on adhesion of A2058 cells (A2058 melanoma cells): 0.2 µg/mL
- Effect on adhesive capacity of A2058 cells (A2058 melanoma cells): enhanced
- Cytosolic Ca^2+ signal in A2058 cells [1]: triggers a rapid cytosolic Ca^2+ signal
